Data reported in US20250101098A1 (R P SCHERER TECHNOLOGIES, published 2025).
Positions count from the first letter of the chain named. Names and notes keep the numbering of the source.

What was measured:
[1] = target: T1, recombinant human Nectin-4-His protein (human, UniProt Q96NY8 32-349); assay: ELISA, hybridoma supernatant
T1 construct: Rescreening antigen and bought ELISA antigen are treated as one molecule; also called human Nectin-4-His tagged; Ag1; not shown: His tag
T1 sequence: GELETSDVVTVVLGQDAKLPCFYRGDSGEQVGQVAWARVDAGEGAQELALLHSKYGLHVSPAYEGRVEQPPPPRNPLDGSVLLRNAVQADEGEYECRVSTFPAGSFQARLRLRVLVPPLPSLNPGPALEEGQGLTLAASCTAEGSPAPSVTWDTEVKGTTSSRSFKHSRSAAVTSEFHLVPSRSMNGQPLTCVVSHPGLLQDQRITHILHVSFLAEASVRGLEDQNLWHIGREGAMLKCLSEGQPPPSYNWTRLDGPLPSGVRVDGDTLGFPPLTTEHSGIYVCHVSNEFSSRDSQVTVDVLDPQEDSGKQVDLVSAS

[2] = target: T2, cynomolgus Nectin-4 His tagged (cynomolgus, UniProt A0A2K5WES1 32-349); assay: ELISA, hybridoma supernatant
T2 construct: also called Ag2
T2 sequence: T1 sequence with V39A, I230V

[3] = target: T1, recombinant human Nectin-4-His protein; assay: ELISA, coated antigen
[4] = target: T3, human nectin-4 protein expressed on the surface of cells (human, UniProt Q96NY8 32-510); assay: cell-based or functional assay
T3 sequence: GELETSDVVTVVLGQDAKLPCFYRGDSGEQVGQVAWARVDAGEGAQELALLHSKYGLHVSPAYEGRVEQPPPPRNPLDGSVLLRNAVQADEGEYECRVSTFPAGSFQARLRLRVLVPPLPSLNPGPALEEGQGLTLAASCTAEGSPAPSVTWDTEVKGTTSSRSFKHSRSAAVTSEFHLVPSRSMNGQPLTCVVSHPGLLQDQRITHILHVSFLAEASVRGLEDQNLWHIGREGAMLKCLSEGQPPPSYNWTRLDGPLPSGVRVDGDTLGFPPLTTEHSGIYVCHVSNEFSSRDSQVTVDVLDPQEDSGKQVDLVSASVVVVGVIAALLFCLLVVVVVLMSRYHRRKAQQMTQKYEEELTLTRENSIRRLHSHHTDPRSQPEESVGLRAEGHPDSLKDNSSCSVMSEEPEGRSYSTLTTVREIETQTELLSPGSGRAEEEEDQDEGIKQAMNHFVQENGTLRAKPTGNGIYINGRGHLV

B1: Nectin-4 5D9H/5D9L (hybridoma supernatant) (antibody, V domains shown)
VH: QVQLKQSGPGLVQPSQSLSITCTVSGFSLTNYGVHWVRQSPGKGLEWLGVIWSGGSTDYNAAFVSRLSISRDNSKSQVFFKMNSLQADDTAIYYCARSGKWYYFDYWGQGTTLTVSS
VL: DIQMTQSPASLSVSVGETVTITCRASENIYSNLAWYQQKQGKSPQLLVYAATNLADGVPSRFSGSGSGTQYSLKINSLQSEDFGSYYCQHFWGTPTFGGGTKLEIK
notes: Mouse antibody in hybridoma supernatant
Binder B1 has an ELISA signal [1] of 3.08 and an ELISA signal [2] of 3.32.

B2: Nectin-4 12E11H/12E11L (hybridoma supernatant) (antibody, V domains shown)
VH: QVQLKQSGPGLVQPSQSLSITCTVSGFSLTTYGVHWVRQSPGKGLEWLGVIWSGGSTDCNGAFISRLSIIKDNSKSQVFFKMNSLQADDTAIYYCARMTHWYFDVWGTGTTVTVSS
VL: DIVMTQSQKFMSTTVGDRVSITCKASQNVNTAVAWYQQKPGQSPKLLIYSASYRYTGVPDRFTGSGSGTDFTLTISNMQSEDLADYFCQQYSNYPLTFGAGTKLELK
notes: as for B1
B2 gave an ELISA signal [1] of 3.21 and an ELISA signal [2] of 3.44.

B3: Nectin-4 Hybridoma 6C8H/6C8L (hybridoma supernatant) (antibody, V domains shown)
VH: B2 VH with T30S, C59Y, G61A, S68T, I70S, V78I, T99M, H100S
VL: B2 VL with T14S, I21V, N30V, A32N, L46A, T56S, M78V, D85E, S92N, N93S
notes: as for B1
B3 was tested, and the ELISA signal [1] was 3.16 and the ELISA signal [2] was 3.4.

B4: Nectin-4 7 E8H/7 E8L (hybridoma supernatant) (antibody, V domains shown)
VH: B2 VH with T30A, C59Y, G61A, I70S, M98N, T99S
VL: DIVMTQSQKFMSTSVGDRVSVTCKASQNVVTNVAWYQQKPGQSPKALIYSASYRYSGVPDRFTGSGSGTDFTLTISHVQSEDLAEYFCHQYNNYPYTFGGGTKLEIK
notes: as for B1
For B4, the ELISA signal [1] was 3.11 and the ELISA signal [2] was 3.44.

B5: Nectin-4 3C12H/3C12L (hybridoma supernatant) (antibody, V domains shown)
VH: B2 VH with S56N, C59Y, G61A, I70S
VL: B2 VL with N30V, Y53N, N77Y, N93S
notes: as for B1
In the case of B5, the ELISA signal [1] is reported as 3.2 and the ELISA signal [2] is reported as 3.45.

B6: Nectin-4 5D9 VH3/VL2 (antibody, V domains shown)
VH: QVQLQESGPGLVKPSETLSLTCTVSGGSITNYGVHWIRQPPGKGLEWLGVIWSGGSTDYNPSLKSRVTISVDTSKNQFSLKLSSVTAADTAVYYCARSGKWYYFDYWGQGTLVTVSS
VL: DIQMTQSPSSLSASVGDTVTITCRASQNIYSNLAWYQQKQGKAPKLLVYAATNLADGVPSRFSGSGSGTDFTLKINSLQPEDFATYYCQHFWGTPTFGGGTKVEIK
notes: Humanized; also called 5D9 VH variant 3 / 5D9 VL variant 2
With B6 the EC50 [3] was 0.00862 µM, the “Cell kill IC50, HekNectin4” value [4] was 0.0548 µM and the “Cell kill IC50, MDA-MB468” value [4] was 0.0177 µM. For the same binder, the “Cell kill IC50, SKBR3” value [4] was 0.0153 µM.

B7: Nectin-4 5D9 VH2/VL4 (antibody, V domains shown)
VH: B6 VH with G27F, P61A, K64V, V71R, N76S, S79F, S83N, T86Q, A88D, L112T
VL: B6 VL with T18R, Q27E, Q40P, F71Y, K74T, N76S
notes: Humanized; also called 5D9 VH variant 2 / 5D9 VL variant 4
B7 was tested, and the EC50 [3] was 0.000765 µM, the “Cell kill IC50, HekNectin4” value [4] was 0.0178 µM and the “Cell kill IC50, MDA-MB468” value [4] was 0.027 µM. For the same binder, the “Cell kill IC50, SKBR3” value [4] was 0.0185 µM.

B8: Nectin-4 5D9 VH4/VL1 (antibody, V domains shown)
VH: B6 VH with E6Q, G27F, I29L, I37V, V67L, V71R, F78V, L80F, L82M
VL: B1 VL with V13A, E17D, E27Q, S72T, S85T, L103V
notes: Humanized; also called 5D9 VH variant 4 / 5D9 VL variant 1; Nectin-4 VH4/VL1
In the case of B8, the EC50 [3] is reported as 0.000212 µM, the “Cell kill IC50, HekNectin4” value [4] is reported as 0.000182 µM and the “Cell kill IC50, MDA-MB468” value [4] is reported as 0.00108 µM. The “Cell kill IC50, SKBR3” value [4] was 0.00385 µM.

B9: Nectin-4 5D9 VH5/VL1 (antibody, V domains shown)
VH: B6 VH with I29L, I37V, L48I, D58N, V71R, F78V
VL: B1 VL with V13A, E17D, E27Q, S72T, S85T, L103V
notes: Humanized; also called 5D9 VH variant 5 / 5D9 VL variant 1
B9 was tested, and the EC50 [3] was 0.0334 µM, the “Cell kill IC50, HekNectin4” value [4] was 0.0303 µM and the “Cell kill IC50, MDA-MB468” value [4] was 0.019 µM. The “Cell kill IC50, SKBR3” value [4] was 0.0133 µM.

B10: Nectin-4 5D9 VH3/VL1 (antibody, V domains shown)
VH: B6 VH
VL: B1 VL with V13A, E17D, E27Q, S72T, S85T, L103V
notes: Humanized; also called 5D9 VH variant 3 / 5D9 VL variant 1
B10 was tested, and the EC50 [3] was over 0.02 µM, the “Cell kill IC50, HekNectin4” value [4] was 0.0733 µM and the “Cell kill IC50, MDA-MB468” value [4] was 0.0416 µM. For the same binder, the “Cell kill IC50, SKBR3” value [4] was 0.0469 µM.

B11: Nectin-4 5D9 VH4/VL4 (antibody, V domains shown)
VH: B6 VH with E6Q, G27F, I29L, I37V, V67L, V71R, F78V, L80F, L82M
VL: B6 VL with T18R, Q27E, Q40P, F71Y, K74T, N76S
notes: Humanized; also called 5D9 VH variant 4 / 5D9 VL variant 4
With B11 the EC50 [3] was 0.000232 µM, the “Cell kill IC50, HekNectin4” value [4] was 0.000102 µM and the “Cell kill IC50, MDA-MB468” value [4] was 0.00337 µM. For the same binder, the “Cell kill IC50, SKBR3” value [4] was 0.00945 µM.

B12: Nectin-4 5D9 VH4/VL2 (antibody, V domains shown)
VH: B6 VH with E6Q, G27F, I29L, I37V, V67L, V71R, F78V, L80F, L82M
VL: B6 VL
notes: Humanized; also called 5D9 VH variant 4 / 5D9 VL variant 2
In the case of B12, the EC50 [3] is reported as 0.000236 µM, the “Cell kill IC50, HekNectin4” value [4] is reported as 0.00029 µM and the “Cell kill IC50, MDA-MB468” value [4] is reported as 0.00313 µM. The “Cell kill IC50, SKBR3” value [4] was 0.00495 µM.

B13: Nectin-4 5D9 VH5/VL4 (antibody, V domains shown)
VH: B6 VH with I29L, I37V, L48I, D58N, V71R, F78V
VL: B6 VL with T18R, Q27E, Q40P, F71Y, K74T, N76S
notes: Humanized; also called 5D9 VH variant 5 / 5D9 VL variant 4
B13 was tested, and the EC50 [3] was 0.0115 µM, the “Cell kill IC50, HekNectin4” value [4] was 0.0221 µM and the “Cell kill IC50, MDA-MB468” value [4] was 0.011 µM. For the same binder, the “Cell kill IC50, SKBR3” value [4] was 0.00953 µM.

B14: Nectin-4 5D9 VH3/VL5 (antibody, V domains shown)
VH: B6 VH
VL: B6 VL with T18R, N28S, Q40P, A55Q, D56S, K74T, N76S
notes: Humanized; also called 5D9 VH variant 3 / 5D9 VL variant 5
With B14 the EC50 [3] was 0.00723 µM, the “Cell kill IC50, HekNectin4” value [4] was 0.04 µM and the “Cell kill IC50, MDA-MB468” value [4] was 0.0433 µM. The “Cell kill IC50, SKBR3” value [4] was 0.0149 µM.

B15: Nectin-4 5D9 VH3/VL4 (antibody, V domains shown)
VH: B6 VH
VL: B6 VL with T18R, Q27E, Q40P, F71Y, K74T, N76S
notes: Humanized; also called 5D9 VH variant 3 / 5D9 VL variant 4
B15 was tested, and the EC50 [3] was 43.6 µM, the “Cell kill IC50, HekNectin4” value [4] was 0.0411 µM and the “Cell kill IC50, MDA-MB468” value [4] was 0.0405 µM. For the same binder, the “Cell kill IC50, SKBR3” value [4] was 0.026 µM.

B16: Nectin-4 5D9 VH5/VL2 (antibody, V domains shown)
VH: B6 VH with I29L, I37V, L48I, D58N, V71R, F78V
VL: B6 VL
notes: Humanized; also called 5D9 VH variant 5 / 5D9 VL variant 2
B16 was tested, and the EC50 [3] was 0.00206 µM, the “Cell kill IC50, HekNectin4” value [4] was 0.0496 µM and the “Cell kill IC50, MDA-MB468” value [4] was 0.0175 µM. The “Cell kill IC50, SKBR3” value [4] was 0.0106 µM.

B17: Nectin-4 5D9 VH4/VL5 (antibody, V domains shown)
VH: B6 VH with E6Q, G27F, I29L, I37V, V67L, V71R, F78V, L80F, L82M
VL: B6 VL with T18R, N28S, Q40P, A55Q, D56S, K74T, N76S
notes: Humanized; also called 5D9 VH variant 4 / 5D9 VL variant 5; Nectin-4 VH4/VL5
B17 was tested, and the EC50 [3] was 0.000195 µM, the “Cell kill IC50, HekNectin4” value [4] was 0.000269 µM and the “Cell kill IC50, MDA-MB468” value [4] was 0.00393 µM. The “Cell kill IC50, SKBR3” value [4] was 0.00726 µM.

B18: Nectin-4 5D9 VH5/VL3 (antibody, V domains shown)
VH: B6 VH with I29L, I37V, L48I, D58N, V71R, F78V
VL: B6 VL with T18R, N28S, Q40P, D56S, K74T, N76S
notes: Humanized; also called 5D9 VH variant 5 / 5D9 VL variant 3
For B18, the EC50 [3] was 0.000702 µM, the “Cell kill IC50, HekNectin4” value [4] was 0.0156 µM and the “Cell kill IC50, MDA-MB468” value [4] was 0.0166 µM. The “Cell kill IC50, SKBR3” value [4] was 0.00986 µM.

B19: Nectin-4 5D9 VH5/VL5 (antibody, V domains shown)
VH: B6 VH with I29L, I37V, L48I, D58N, V71R, F78V
VL: B6 VL with T18R, N28S, Q40P, A55Q, D56S, K74T, N76S
notes: Humanized; also called 5D9 VH variant 5 / 5D9 VL variant 5
For B19, the EC50 [3] was 0.0561 µM, the “Cell kill IC50, HekNectin4” value [4] was 0.0335 µM and the “Cell kill IC50, MDA-MB468” value [4] was 0.024 µM. For the same binder, the “Cell kill IC50, SKBR3” value [4] was 0.0178 µM.

B20: Nectin-4 5D9 VH4/VL3 (antibody, V domains shown)
VH: B6 VH with E6Q, G27F, I29L, I37V, V67L, V71R, F78V, L80F, L82M
VL: B6 VL with T18R, N28S, Q40P, D56S, K74T, N76S
notes: Humanized; also called 5D9 VH variant 4 / 5D9 VL variant 3
For B20, the EC50 [3] was 0.000204 µM, the “Cell kill IC50, HekNectin4” value [4] was 0.000333 µM and the “Cell kill IC50, MDA-MB468” value [4] was 0.00371 µM. For the same binder, the “Cell kill IC50, SKBR3” value [4] was 0.00646 µM.
